Four molecules from patent EP4585618A1 (Jiangsu Hengrui Pharmaceuticals Co., Ltd., dated 2025) can be followed below.

Experiment [1] concerns the target T1, LILRA5-His (Acro, LI5-H82E1) (human, UniProt A6NI73 42-268).
T1 construct: Bought protein. 'Human' stands at the head of the list of coated proteins; not shown: His tag
As to the kind of experiment: ELISA, coated protein 1 µg/mL.

The target in experiment [2] is T2, LILRA6-His (Acro, LI6-H82E2) (human, UniProt Q6PI73 24-447).
T2 construct: Bought protein. 'Human' stands at the head of the list of coated proteins; not shown: His tag
T2 sequence (Q6PI73 24-447 limits assumed): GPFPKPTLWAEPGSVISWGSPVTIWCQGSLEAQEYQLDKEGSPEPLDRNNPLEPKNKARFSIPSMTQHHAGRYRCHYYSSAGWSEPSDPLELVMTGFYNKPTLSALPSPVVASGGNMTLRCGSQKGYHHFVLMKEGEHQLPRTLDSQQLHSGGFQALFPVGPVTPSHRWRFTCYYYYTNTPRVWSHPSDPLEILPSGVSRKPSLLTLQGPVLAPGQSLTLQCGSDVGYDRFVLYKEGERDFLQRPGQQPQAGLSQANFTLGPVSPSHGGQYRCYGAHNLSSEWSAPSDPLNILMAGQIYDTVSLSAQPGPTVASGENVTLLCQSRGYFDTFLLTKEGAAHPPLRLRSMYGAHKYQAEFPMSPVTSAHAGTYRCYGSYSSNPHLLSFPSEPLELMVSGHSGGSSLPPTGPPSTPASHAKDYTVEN
As to the kind of experiment: ELISA, coated protein 1 µg/mL.

For experiment [3], the target named is T3, His-tagged ILT2 protein extracellular domain: ILT2-His (human, UniProt Q8NHL6 24-461).
T3 construct: The entry is the whole construct, with the His tag; also called human ILT2 protein
T3 sequence (Q8NHL6 other isoform, or with tags, fused parts or gaps): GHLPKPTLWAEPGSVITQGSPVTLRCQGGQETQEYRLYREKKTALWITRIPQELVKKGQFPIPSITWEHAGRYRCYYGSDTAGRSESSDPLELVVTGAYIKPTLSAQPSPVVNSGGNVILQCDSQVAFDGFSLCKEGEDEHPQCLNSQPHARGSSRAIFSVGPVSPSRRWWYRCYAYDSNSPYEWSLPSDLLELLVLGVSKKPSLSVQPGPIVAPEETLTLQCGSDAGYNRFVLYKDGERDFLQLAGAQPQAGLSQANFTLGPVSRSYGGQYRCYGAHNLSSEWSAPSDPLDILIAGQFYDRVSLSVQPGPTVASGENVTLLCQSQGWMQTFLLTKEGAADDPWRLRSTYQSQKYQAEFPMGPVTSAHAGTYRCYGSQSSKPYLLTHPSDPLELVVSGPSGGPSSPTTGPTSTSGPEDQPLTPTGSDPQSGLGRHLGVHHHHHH
As to the kind of experiment: ELISA, coated protein 1 µg/mL.

Experiment [4] has as its target T4, His-tagged ILT3 protein extracellular domain: ILT3-His (human, UniProt Q8NHJ6 22-259).
T4 construct: The entry is the whole construct, with the His tag
As to the kind of experiment: ELISA, coated protein 1 µg/mL.

Experiment [5] concerns the target T5, LILRB5-His (Acro, CDC-H5220) (human, UniProt O75023 24-458, limits assumed).
T5 construct: Bought protein. 'Human' stands at the head of the list of coated proteins; not shown: His tag
As to the kind of experiment: ELISA, coated protein 1 µg/mL.

The target in experiment [6] is T6, LILRA1-His (Acro, LI1-H82E8) (human, UniProt O75019 17-461).
T6 construct: Bought protein. 'Human' stands at the head of the list of coated proteins; not shown: His tag
T6 sequence (O75019 17-461 limits assumed): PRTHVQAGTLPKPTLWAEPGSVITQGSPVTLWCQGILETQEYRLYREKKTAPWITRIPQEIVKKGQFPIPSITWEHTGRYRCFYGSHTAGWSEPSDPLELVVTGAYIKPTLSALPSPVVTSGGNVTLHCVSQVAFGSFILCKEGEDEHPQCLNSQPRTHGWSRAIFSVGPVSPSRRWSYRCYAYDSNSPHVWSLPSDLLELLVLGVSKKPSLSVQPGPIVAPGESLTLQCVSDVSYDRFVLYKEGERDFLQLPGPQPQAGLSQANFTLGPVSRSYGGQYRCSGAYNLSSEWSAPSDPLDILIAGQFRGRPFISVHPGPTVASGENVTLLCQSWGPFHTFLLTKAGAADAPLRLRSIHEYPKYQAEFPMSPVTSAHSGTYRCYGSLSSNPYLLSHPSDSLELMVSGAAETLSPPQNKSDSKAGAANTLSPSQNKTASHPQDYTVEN
Briefly: ELISA, coated protein 1 µg/mL.

The target in experiment [7] is T7, LILRA2-His (Acro, LI2-H82E9) (human, UniProt Q8N149 24-449).
T7 construct: Bought protein. 'Human' stands at the head of the list of coated proteins; not shown: His tag
T7 sequence (Q8N149 24-449 limits assumed): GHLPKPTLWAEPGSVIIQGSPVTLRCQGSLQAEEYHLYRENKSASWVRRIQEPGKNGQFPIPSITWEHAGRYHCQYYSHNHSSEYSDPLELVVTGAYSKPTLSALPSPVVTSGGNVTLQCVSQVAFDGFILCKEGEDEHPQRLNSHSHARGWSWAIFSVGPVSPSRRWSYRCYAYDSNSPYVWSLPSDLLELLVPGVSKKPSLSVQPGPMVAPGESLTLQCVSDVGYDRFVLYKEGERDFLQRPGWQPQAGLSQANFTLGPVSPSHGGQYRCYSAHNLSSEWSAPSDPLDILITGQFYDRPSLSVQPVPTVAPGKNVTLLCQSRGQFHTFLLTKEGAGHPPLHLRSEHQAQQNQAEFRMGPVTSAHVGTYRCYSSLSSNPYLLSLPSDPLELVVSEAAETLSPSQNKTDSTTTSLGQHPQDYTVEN
Briefly: ELISA, coated protein 1 µg/mL.

The target in experiment [8] is T8, LILRA3-His (Acro, LI3-H82E0) (human, UniProt Q8N6C8 24-439).
T8 construct: Bought protein. 'Human' stands at the head of the list of coated proteins; not shown: His tag
T8 sequence (Q8N6C8 24-439 limits assumed): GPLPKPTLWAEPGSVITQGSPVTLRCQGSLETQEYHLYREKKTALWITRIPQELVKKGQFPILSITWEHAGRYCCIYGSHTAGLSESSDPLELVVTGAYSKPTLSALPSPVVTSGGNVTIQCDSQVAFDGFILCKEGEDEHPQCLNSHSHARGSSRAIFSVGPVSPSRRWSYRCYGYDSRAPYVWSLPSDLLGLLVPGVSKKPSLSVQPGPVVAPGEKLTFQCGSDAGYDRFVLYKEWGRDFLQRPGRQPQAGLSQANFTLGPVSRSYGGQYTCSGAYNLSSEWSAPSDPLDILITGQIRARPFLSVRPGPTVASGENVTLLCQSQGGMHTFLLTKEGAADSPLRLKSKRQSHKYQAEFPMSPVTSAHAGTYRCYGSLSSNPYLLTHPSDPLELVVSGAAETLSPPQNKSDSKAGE
As to the kind of experiment: ELISA, coated protein 1 µg/mL.

For experiment [9], the target named is T9, LILRA4-His (SinoBiological, 16058-H08H) (human, UniProt P59901 24-446).
T9 construct: Bought protein. 'Human' stands at the head of the list of coated proteins; not shown: His tag
T9 sequence (P59901 24-446 limits assumed): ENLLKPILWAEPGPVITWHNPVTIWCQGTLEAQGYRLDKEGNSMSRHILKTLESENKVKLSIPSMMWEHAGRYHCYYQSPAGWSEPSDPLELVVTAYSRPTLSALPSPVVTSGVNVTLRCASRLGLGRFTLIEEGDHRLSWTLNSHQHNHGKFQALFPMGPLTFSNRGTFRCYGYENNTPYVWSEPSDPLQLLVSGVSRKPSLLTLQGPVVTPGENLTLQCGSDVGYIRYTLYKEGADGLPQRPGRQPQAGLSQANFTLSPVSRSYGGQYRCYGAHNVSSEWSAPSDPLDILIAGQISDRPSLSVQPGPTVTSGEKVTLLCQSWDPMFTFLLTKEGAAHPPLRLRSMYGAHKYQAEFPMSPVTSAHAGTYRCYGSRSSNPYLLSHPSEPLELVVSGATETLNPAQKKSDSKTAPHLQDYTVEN
Briefly: ELISA, coated protein 1 µg/mL.

The target in experiment [10] is T10, His-tagged ILT4 protein extracellular domain: ILT4-His (human, UniProt Q8N423 22-460).
T10 construct: Expressed in 293 cells; also called human ILT4-His protein
T10 sequence (Q8N423 other isoform, or with tags, fused parts or gaps limits assumed): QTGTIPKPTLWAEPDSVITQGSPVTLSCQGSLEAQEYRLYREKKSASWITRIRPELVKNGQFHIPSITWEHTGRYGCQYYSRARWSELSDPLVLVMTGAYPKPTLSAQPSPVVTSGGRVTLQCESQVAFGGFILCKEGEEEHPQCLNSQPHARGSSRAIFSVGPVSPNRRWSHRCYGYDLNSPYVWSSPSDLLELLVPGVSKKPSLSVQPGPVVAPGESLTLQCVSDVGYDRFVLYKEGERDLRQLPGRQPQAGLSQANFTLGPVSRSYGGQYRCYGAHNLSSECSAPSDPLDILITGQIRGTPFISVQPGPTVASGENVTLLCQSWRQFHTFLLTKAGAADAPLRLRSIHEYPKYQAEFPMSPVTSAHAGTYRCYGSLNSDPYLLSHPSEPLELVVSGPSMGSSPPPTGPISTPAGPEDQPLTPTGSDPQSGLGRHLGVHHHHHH
Briefly: ELISA, coated protein 1 µg/mL, antibody 10 µg/mL.

Experiment [11] has as its target T1, LILRA5-His (Acro, LI5-H82E1). Briefly: ELISA, coated protein 1 µg/mL, antibody 10 µg/mL.
In experiment [12] the target is T2, LILRA6-His (Acro, LI6-H82E2). Briefly: ELISA, coated protein 1 µg/mL, antibody 10 µg/mL.
The target in experiment [13] is T3, His-tagged ILT2 protein extracellular …. As to the kind of experiment: ELISA, coated protein 1 µg/mL, antibody 10 µg/mL.
The target in experiment [14] is T4, His-tagged ILT3 protein extracellular …. Briefly: ELISA, coated protein 1 µg/mL, antibody 10 µg/mL.
In experiment [15] the target is T5, LILRB5-His (Acro, CDC-H5220). As to the kind of experiment: ELISA, coated protein 1 µg/mL, antibody 10 µg/mL.
Experiment [16] concerns the target T6, LILRA1-His (Acro, LI1-H82E8). As to the kind of experiment: ELISA, coated protein 1 µg/mL, antibody 10 µg/mL.
The target in experiment [17] is T7, LILRA2-His (Acro, LI2-H82E9). Briefly: ELISA, coated protein 1 µg/mL, antibody 10 µg/mL.
In experiment [18] the target is T8, LILRA3-His (Acro, LI3-H82E0). As to the kind of experiment: ELISA, coated protein 1 µg/mL, antibody 10 µg/mL.
In experiment [19] the target is T9, LILRA4-His (SinoBiological, 16058-H08H). Briefly: ELISA, coated protein 1 µg/mL, antibody 10 µg/mL.
The target of experiment [20] is T10, His-tagged ILT4 protein extracellular …. As to the kind of experiment: SPR (Biacore), antibody captured on Protein A chip, ILT4-His as analyte, 1:1 model.
For experiment [21], the target named is T11, full-length human ILT4 protein overexpressed on cells (human, UniProt Q8N423 22-597).
T11 construct: also called CHO-S/ILT4; ILT4 stably transfected cell strain
T11 sequence (Q8N423 other isoform, or with tags, fused parts or gaps limits assumed): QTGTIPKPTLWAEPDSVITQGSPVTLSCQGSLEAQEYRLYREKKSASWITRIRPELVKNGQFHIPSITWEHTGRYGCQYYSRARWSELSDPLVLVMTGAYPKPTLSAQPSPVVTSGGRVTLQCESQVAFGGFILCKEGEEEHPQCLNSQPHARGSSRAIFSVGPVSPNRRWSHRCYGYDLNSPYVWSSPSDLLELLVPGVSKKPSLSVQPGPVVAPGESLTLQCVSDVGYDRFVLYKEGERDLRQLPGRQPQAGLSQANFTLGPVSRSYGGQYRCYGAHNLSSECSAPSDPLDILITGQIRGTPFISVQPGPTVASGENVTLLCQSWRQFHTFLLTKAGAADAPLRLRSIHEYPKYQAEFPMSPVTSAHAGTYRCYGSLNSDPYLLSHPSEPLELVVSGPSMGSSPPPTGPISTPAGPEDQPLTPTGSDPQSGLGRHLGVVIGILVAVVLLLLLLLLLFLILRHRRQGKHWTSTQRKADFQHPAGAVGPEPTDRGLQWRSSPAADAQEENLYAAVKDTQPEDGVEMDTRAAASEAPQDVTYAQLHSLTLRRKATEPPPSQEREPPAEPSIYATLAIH
As to the kind of experiment: flow cytometry competition on CHO-S/ILT4 cells; competitor CF647-labelled HLA-G tetramer; Assay 2.

Experiment [22] concerns the target T10, His-tagged ILT4 protein extracellular …. As to the kind of experiment: ELISA, coated ILT4-His 1 µg/mL; Assay 5.
Experiment [23] has as its target T11, full-length human ILT4 protein …. As to the kind of experiment: flow cytometry competition on CHO-S/ILT4 cells; competitor CF647-labelled HLA-G tetramer; Assay 3.

T1 sequence (A6NI73 42-268 limits assumed): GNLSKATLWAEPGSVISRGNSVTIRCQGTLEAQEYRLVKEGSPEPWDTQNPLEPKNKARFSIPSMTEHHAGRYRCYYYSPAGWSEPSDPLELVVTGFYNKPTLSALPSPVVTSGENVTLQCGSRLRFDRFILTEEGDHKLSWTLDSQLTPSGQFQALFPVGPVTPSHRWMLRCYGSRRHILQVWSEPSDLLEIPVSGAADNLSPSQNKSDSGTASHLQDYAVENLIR
T5 sequence (O75023 24-458 limits assumed): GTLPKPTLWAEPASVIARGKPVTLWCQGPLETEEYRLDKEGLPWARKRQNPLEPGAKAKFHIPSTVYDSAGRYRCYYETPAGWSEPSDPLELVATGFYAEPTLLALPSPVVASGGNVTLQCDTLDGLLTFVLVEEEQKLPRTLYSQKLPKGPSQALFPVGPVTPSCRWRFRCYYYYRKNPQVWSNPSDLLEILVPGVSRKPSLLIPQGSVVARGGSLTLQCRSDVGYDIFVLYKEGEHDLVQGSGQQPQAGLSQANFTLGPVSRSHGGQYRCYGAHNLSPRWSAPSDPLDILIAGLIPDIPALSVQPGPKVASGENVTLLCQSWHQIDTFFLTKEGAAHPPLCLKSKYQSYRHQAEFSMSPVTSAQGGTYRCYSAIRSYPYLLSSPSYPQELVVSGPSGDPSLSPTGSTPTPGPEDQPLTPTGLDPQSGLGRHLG

B1: humanized antibody huP2-G9 (antibody, human IgG1, kappa, L234A L235A, V domains shown)
VH: EVQLQESGPGLVKPSQTLSLTCTVSGSSITSGYYWNWIRQHPGKGLEWIGYLSYDGSNNYNPSLKNLVTISRDTSKNQFSLKLSSVTAADTAVYYCAREGAHYSGTLSWFAYWGQGTLVTVSS
VL: DIQMTQSPSSLSASVGDRVTITCRASENIYSNLAWYQQKPGKSPKLLVYAATNLADGVPSRFSGSGSGTDYTLTISSLQPEDFATYYCQHFWDTPYTFGGGTKVEIKR
notes: Full chains; also called P2-G9H1L2
For the molecule B1, the binding result in experiment [1], in [2], in experiment [3], in [4], in experiment [5] and in [6] was “no binding (tested: 10 µg/mL)” each time. Besides, the binding result in experiment [7], in experiment [8] and in experiment [9] was “no binding (tested: 10 µg/mL)” throughout. In addition, the “absorbance at 450 nm” value in [10] is 1.77 absorbance at 450 nm; in experiment [11] it was 0.0441 absorbance at 450 nm; in experiment [12], 0.0449 absorbance at 450 nm; in experiment [13] it was 0.0541 absorbance at 450 nm; in experiment [14], 0.0564 absorbance at 450 nm; in [15], 0.0533 absorbance at 450 nm. Also, the “absorbance at 450 nm” value in experiment [16] came to 0.0457 absorbance at 450 nm; in [17], 0.0759 absorbance at 450 nm; in experiment [18], 0.0461 absorbance at 450 nm; in experiment [19], 0.0674 absorbance at 450 nm. Also, the Kd in experiment [20] is 0.109 nM. In experiment [20], the koff is 0.000109 s⁻¹. The kon in [20] was determined as 999000 M⁻¹ s⁻¹. In experiment [21], this molecule displayed an IC50 of 0.085 µg/mL.

B2: chimeric antibody ChP2-E10 (antibody, human IgG4 S228P, kappa, F234A L235A, V domains shown)
VH: DVQLQESGPGLVKPSQSLSLTCSVTGYSITSGYYWNWIRQFPGNKLEWMGYMSYEGTNNSNPSLKNRISITRDTSKNQFFLKLNSVTTEDTARYYCARERAYYYGTLGAMDYWGQGTSVTVSS
VL: DIQMTQSPASLSVSVGETVTITCRASENIYSNLAWYQQKQGKSPQLLVYAATNLADGVPSRFSGSGSGTQYSLKINSMQSEDFGSYYCQHFWDTPFTFGSGTKLEIKR
notes: Murine variable regions with hIgG4(LALA) and CL constant regions; also called M P2-E10
With B2, in experiment [22], the EC50 was found to be 0.0658 µg/mL and the Top was found to be 1.65 absorbance at 450 nm.

B3: humanized antibody huP2-C6 (antibody, human IgG1, kappa, L234A L235A, V domains shown)
VH: EVQLVQSGAEVKKPGASVKVSCKASGYTFTDYYIHWVRQAPGQGLEWMGYIYPDTGYSGYNQKFKGRVTMTVDKSTSTAYMELRSLRSDDTAVYYCTRRGDYSGVHFDYWGQGTTVTVSS
VL: DIVLTQSPDSLAVSLGERATINCRASESVNNYGVGFLHWYQQKPGQPPKLLIYRASTLESGIPDRFSGSGSGTDFTLTISSLQAEDVAVYYCQHSYKDPPWTFGGGTKVEIKR
notes: Full chains; also called P2-C6H7L1
In the case of B3, the binding result in experiment [1], in experiment [2], in experiment [3], in experiment [4], in [5] and in experiment [6] was “no binding (tested: 10 µg/mL)” throughout. The binding result in experiment [7], in experiment [8] and in [9] was “no binding (tested: 10 µg/mL)” each time. In addition, the “absorbance at 450 nm” value is 2.69 absorbance at 450 nm in experiment [10]; 0.0598 absorbance at 450 nm in experiment [11]; 0.0606 absorbance at 450 nm in experiment [12]; 0.0621 absorbance at 450 nm in experiment [13]; 0.149 absorbance at 450 nm in experiment [14]; 0.0563 absorbance at 450 nm in experiment [15]. Further, the “absorbance at 450 nm” value was determined as 0.0535 absorbance at 450 nm in experiment [16], 0.0565 absorbance at 450 nm in experiment [17], 0.0613 absorbance at 450 nm in [18] and 0.0605 absorbance at 450 nm in experiment [19]. In experiment [20], this molecule returned a Kd of 0.0543 nM. Also, the koff in [20] was 6.58e-05 s⁻¹. In experiment [20], this molecule yielded a kon of 1.21e+06 M⁻¹ s⁻¹. The 50% inhibitory concentration (IC50) in [23] stood at 0.072 µg/mL.

B4: humanized antibody huP2-E8 (antibody, human IgG4 S228P, kappa, F234A L235A, V domains shown)
VH: EVQLVESGGGLVKPGGSLRLSCAASGFTFSDYGIHWVRQAPGKGLEWVAYISSGSSIHNYADTVKGRFTISRDNAKNSLYLQMNSLRAEDTAVYYCARGPNYYGSSYLLVYWGQGTLVTVSS
VL: DIQMTQSPSSLSASVGDRVTITCKASQDVNIAVAWYQQKPGKAPKLLIYSASYRYTGVPSRFSGSGSGTDFTFTISSLQPEDIATYYCQQHYNIPWTFGGGTKVEIKR
notes: Full chains; also called P2-E8H4L1
Turning to B4, the binding result in [1], in experiment [2], in experiment [3], in [4], in experiment [5] and in [6] was “no binding (tested: 10 µg/mL)” throughout. Moreover, the binding result in experiment [7], in experiment [8] and in [9] was “no binding (tested: 10 µg/mL)” throughout. Moreover, the “absorbance at 450 nm” value in [10] was determined as 0.954 absorbance at 450 nm; in [11], 0.0467 absorbance at 450 nm; in experiment [12], 0.0461 absorbance at 450 nm; in [13] it was 0.0569 absorbance at 450 nm; in experiment [14], 0.063 absorbance at 450 nm; in experiment [15], 0.0489 absorbance at 450 nm. Besides, the “absorbance at 450 nm” value in experiment [16] is 0.0483 absorbance at 450 nm; in experiment [17] it was 0.0516 absorbance at 450 nm; in experiment [18], 0.0467 absorbance at 450 nm; in experiment [19], 0.0504 absorbance at 450 nm. In addition, the Kd in experiment [20] came out at 0.839 nM. Besides, the koff in [20] is 0.000186 s⁻¹. In addition, the kon in [20] was 222000 M⁻¹ s⁻¹.
